Tests used:
[1] = tested on: inactivated SARS-CoV-2 virus (whole virion) (SARS-CoV-2 strain CN2); experiment: EIS; settings: 5' SH, 3 x iSp18 spacer; binding buffer 50 mM HEPES pH 7.4, 100 mM NaCl, 5 mM KCl, 2 mM MgCl2, 1 mM CaCl2; room temperature in SELEX, ELONA temperature not stated
[2] = tested on: inactivated SARS-CoV-2 virus (whole virion) (SARS-CoV-2 strain CN2); experiment: ELONA competition; settings: binding buffer 50 mM HEPES pH 7.4, 100 mM NaCl, 5 mM KCl, 2 mM MgCl2, 1 mM CaCl2; room temperature in SELEX, ELONA temperature not stated
[3] = tested on: inactivated SARS-CoV-2 virus (whole virion) (SARS-CoV-2 strain CN2); experiment: ELONA; settings: binding buffer 50 mM HEPES pH 7.4, 100 mM NaCl, 5 mM KCl, 2 mM MgCl2, 1 mM CaCl2; room temperature in SELEX, ELONA temperature not stated

Row | Sequence | binding signal (% impedance decrease) [1] | binding signal (% signal decrease) [2] | Kd [3]
1 | GCAATGGTACGGTACTTCCATGGCTGGTGCTTGAGGTGTGTGTGGGGGTAGGGCCAAAAGTGCACGCTACTTTGCTAA [thiolated aptamer 6.9] | 40 |  | 
2 | GCAATGGTACGGTACTTCCATGGCTGGTGCTTGAGGTGTGTGTGGGGGTAGGGCCAAAAGTGCACGCTACTTTGCTAA [aptamer 6.9] |  | 56 | 9.6 nM
3 | GCAATGGTACGGTACTTCCCGGGGCGGGCTGTCATGCCCATCCTACCGTGACCGCAAAAGTGCACGCTACTTTGCTAA [aptamer 6.8] |  |  | 21 nM
